{"source": "patent US20240033331A1", "about": "“REDUCING IMMUNOGENICITY TO PEGLOTICASE” (Horizon Therapeutics USA, Inc., priority 2019, published 2024)", "key": {"rabbits": {"system": "rabbits", "settings": "cited from earlier work"}, "[1]": {"settings": "human, in vivo; cited from earlier work"}, "rats": {"system": "rats", "settings": "cited from earlier work"}, "serum proteins": {"system": "serum proteins", "settings": "cited from earlier work"}, "[2]": {"system": "patients treated with allopurinol", "settings": "cited from earlier work"}, "[3]": {"system": "subjects with refractory gout", "settings": "doses of 4 to 12 mg; from 11.1±0.6 mg/dL before; cited from earlier work"}, "patients": {"system": "patients", "settings": "bi-weekly or every 4 weeks for up to 30 months; 149 patients; cited from earlier work"}, "[4]": {"system": "patients receiving pegloticase", "settings": "cited from earlier work; for patients maintaining a response to pegloticase: another study"}, "[5]": {"settings": "diluted in infusion bags, cited from earlier work"}, "[6]": {"system": "patients treated with pegloticase", "settings": "cited from earlier work"}, "[7]": {"assay": "KXX exposure (AUC) by patient weight and age", "type": "in vivo, human", "excerpt": "In some embodiments, heavier and/or younger patients may have a higher incidence of anti-KXX antibodies, or may have higher anti-KXX drug titers, than lighter and/or older patients. In other embodiments, lighter and/or older patients may have higher drug loading of KXX than heavier and/or younger patients. In some embodiments, lighter patients may have higher exposures of KXX than heavier patients. For example, in some embodiments, lighter patients may have greater than 2-fold exposure to KXX than heavier patients. In some embodiments, lower drug levels in a patient may result in anti-KXX antibodies. […] In other embodiments, older patients may have higher exposures of KXX than younger patients. For example, in some embodiments, older patients may have greater than 2-fold exposure to KXX than younger patients. […] Thus, in some embodiments, additional 8-mg doses of KXX may be beneficial for younger and/or heavier patients. In other embodiments, younger and/or heavier patients may benefit from one or more loading doses of 16 mg of KXX."}, "[8]": {"system": "hyperuricemic patients (SUA >8 mg/dL) with symptomatic gout", "settings": "cited from earlier work; for incidence of infusion-related reactions: pegloticase 8 mg"}, "lupus nephritis patients": {"system": "lupus nephritis patients", "settings": "in vivo; cited from earlier work"}}, "note": "Read-outs that look alike come from different tables or passages of the source.", "data": [{"molecule": "COc1c(C)c2c(c(O)c1C/C=C(\\C)CCC(=O)OCCN1CCOCC1)C(=O)OC2", "note": "[MMF, 2-morpholinoethyl (E)-6-(1,3-dihydro4-hydroxy-6-methoxy-7-methyl-3-oxo-5-isobenzofuranyl)-4-methyl-4-hexenoate]", "values": [{"measurement": "teratogenicity", "setting": "rabbits", "value": "teratogenic effects"}, {"measurement": "time after which not detectable in urine", "setting": "[1]", "value": 8, "unit": "h"}, {"measurement": "teratogenicity", "setting": "rats", "value": "teratogenic effects"}, {"measurement": "bound to serum proteins", "setting": "serum proteins", "value": 30, "unit": "%"}]}, {"molecule": "Oc1ncnc2[nH]ncc12", "note": "[allopurinol]", "values": [{"measurement": "patients developing allergic reactions", "setting": "[2]", "value": "Approximately 2%"}, {"measurement": "severe hypersensitivity syndrome", "setting": "[2]", "value": "about 0.4%"}]}, {"molecule": "Sc1ncnc2nc[nH]c12", "note": "[mercaptopurine, 6-mercaptopurine]", "values": [{"measurement": "time after which not detectable in urine", "setting": "[1]", "value": 8, "unit": "h"}, {"measurement": "bound to serum proteins", "setting": "serum proteins", "value": 30, "unit": "%"}]}, {"molecule": "pegloticase", "values": [{"measurement": "pUAc after dosing, mean±SD", "setting": "[3]", "value": "1.0±0.5", "unit": "mg/dL"}, {"measurement": "long-term safety", "setting": "patients", "value": "No new safety signals were observed"}, {"measurement": "patients with titers exceeding 1:2430 who developed IRs", "setting": "[4]; 31 of 52 patients", "value": 60, "unit": "%"}, {"measurement": "patients maintaining a response to pegloticase", "setting": "[4]; antibody titer exceeding 1:2430 at any time, 7 of 65", "value": 10.8, "unit": "%"}, {"measurement": "patients maintaining a response to pegloticase", "setting": "[4]; never had an antibody titer above 1:2430, 58/65", "value": 89.2, "unit": "%"}, {"measurement": "patients who developed high titer anti-pegloticase antibodies and subsequently lost response", "setting": "[4]; one study, 69 of 169 patients", "value": 41, "unit": "%"}, {"measurement": "time stable after dilution", "setting": "[5]; 2° C. to 8° C.", "value": 4, "unit": "h"}, {"measurement": "time stable after dilution", "setting": "[5]; room temperature (20° C. to 25° C.)", "value": 4, "unit": "h"}, {"measurement": "other uncommon symptoms, share of patients", "setting": "[6]; ecchymoses, sore throat, constipation, chest pain, vomiting", "value": "at least 5%"}, {"measurement": "most common adverse reactions, share of treated patients", "setting": "[6]; gout flares, infusion reactions, nausea, contusion or ecchymosis, nasopharyngitis, constipation, chest pain, anaphylaxis, vomiting", "value": "≥ 5", "unit": "%"}, {"measurement": "anaphylaxis, frequency", "setting": "[6]; human, in vivo", "value": 6.5, "unit": "%"}, {"measurement": "infusion reactions, share of patients", "setting": "[6]; pegloticase 8 mg every 2 weeks", "value": 26, "unit": "%"}, {"measurement": "mean area under the curve (AUC)", "setting": "[7]; heavier patients", "value": "about 4.04 mg/L"}, {"measurement": "exposure, lighter versus heavier patients", "setting": "[7]; human, in vivo", "value": "greater than 2 fold"}, {"measurement": "exposure, older versus younger patients", "setting": "[7]; human, in vivo", "value": "greater than 2 fold"}, {"measurement": "mean area under the curve (AUC)", "setting": "[7]; lighter patients", "value": "about 8.92 mg/L"}, {"measurement": "mean area AUC", "setting": "[7]; older patients", "value": "about 8.86 mg/L"}, {"measurement": "mean area AUC", "setting": "[7]; younger patients", "value": "about 3.93 mg/L"}, {"measurement": "patients with IRs in whom loss of response (return to SUA >6 mg/dL) preceded the first IR", "setting": "[8]; 20/21 patients", "value": 95, "unit": "%"}, {"measurement": "incidence of infusion-related reactions", "setting": "[8]; biweekly dosing", "value": 26, "unit": "%"}, {"measurement": "incidence of infusion-related reactions", "setting": "[8]; every-4-week dosing regimen", "value": 40, "unit": "%"}]}, {"molecule": "rituximab: biologic given with MMF and glucocorticoids in a lupus nephritis trial", "values": [{"measurement": "rate of serious infections", "setting": "lupus nephritis patients", "value": "16.6 /100 patient-years"}]}]}
